Laboratory results taken from paper PMC6071530.

Target: Recombinant human S100A4 (human) (UniProt P26447)
Assay: SPR; BIAcore 2000; 2000 RU of recombinant human S100A4 immobilized covalently on a CM4 chip; soluble AR or NRG as analyte

Sequence of Recombinant human S100A4 (human) (P26447 whole entry): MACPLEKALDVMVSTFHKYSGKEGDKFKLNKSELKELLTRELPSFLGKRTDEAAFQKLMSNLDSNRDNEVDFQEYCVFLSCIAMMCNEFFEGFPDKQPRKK

Kd: 19.9 nM
Substance: Neuregulin 1 (from UniProt Q02297 20-241) (ligand)
